Data set [1] relates to MBP. As to the kind of experiment: Basal phosphorylation activity of recombinant SIP kinase produced in E. coli. Format: biochemical. The settings on record: recombinant protein from E. coli. An excerpt:
A tobacco clone that encodes an exemplary SIP kinase of the invention is described in detail herein. The nucleotide sequence of a cDNA encoding tobacco SIP kinase is set forth below as Sequence I.D. No. 1. It is believed that Sequence I.D. No. 1 constitutes a full-length SIP kinase-encoding clone as it contains a suitable methionine for initiation of translation.
Optionally, transgenic plants would be created containing mutations in the region encoding the active site of SIP kinase. This embodiment is preferred over the use of anti-sense constructs due to the very high homology between MAP kinases. For example, a mutated p48 SIP kinase with a Lys to Arg change in the kinase subdomain II has been made, and could be introduced into wild tobacco plants. […] Since the mutant p48 kinase would still serve as the substrate for upstream MAP kinase kinase and physically compete with the wild-type p48 SIP kinase, but would not transduce signal to downstream components, it may be possible to specifically block the pathway without affecting other MAP kinase cascades.

The target of another data set is T1, p48 SIP kinase (Nicotiana tabacum, UniProt A0A1S3Z5Y0).
T1 construct: endogenous in cells; host or cells: SA-treated tobacco suspension culture cells (purified through the poly-L-lysine agarose step)
Briefly: Kinetic properties, substrates, cofactors and pH dependence of p48 SIP kinase (in-solution kinase assay). Format: biochemical, tobacco. The settings on record: pH of 5.5 or 10. As for the experimental part: FIGS. 10A and 10B show a pair of graphs illustrating the effect of pH (FIG. 10A), Mg^2+ and Mn^2+ (FIG. 10B) on p48 SIP kinase activity. Approximately 0.5 unit of partially purified enzyme was used in each test. Buffers used for measuring the effect of pH were 50 mM 2-[N-morpholino]ethanesulfonic acid (Mes, pH 5.0-8.0, .circle-solid.), 50 mM Tris (pH 6.0-9.5, .tangle-solidup.), and 50 mM 3-[cyclohexylamino]-1-propanesulfonic acid (Caps, pH 9.0-12.0, .box-solid.). For testing the effects of Mg^2+ (.circle-solid.), and Mn^2+ (.tangle-solidup.), buffer B from the last purification step was first exchanged to Mg^2+ -free buffer using a desalting column. Mg^2+ was not added in reactions for testing the effect of Mn^2+.
FIG. 11 is a graph depicting the protein substrate preference of the p48 SIP kinase. About 0.5 unit of partially purified enzyme was used in each reaction. The assay conditions were as described below in Example 1, except various concentrations of MBP (.circle-solid.), histone (.tangle-solidup.), and casein (.box-solid.) were used.
Unless specifically indicated, assays were performed at room temperature for 20 minutes in a final volume of 15 μl containing 0.5 mg/mL of MBP, 50 μM of γ-^32 P-ATP (about 3000-6000 cpm/pmole), 25 mM Tris pH 7.5, 5 mM MgCl2, 1 mM EGTA, 1 mM DTT, and enzyme. The reaction was terminated by the addition of equal volume of 150 mM H3 PO4. Twenty μL of the mixture was spotted onto an 8-well phosphocellulose filter strip (Pierce, Ill.). After washing with 150 mM H3 PO4 extensively, the phospho-protein was eluted with 0.4 mL of 1 N NaOH, and the radioactivity was determined by liquid scintillation counting. Total cpm in the reaction mixture was also determined in order to calculate the specific activity of the enzyme preparation. One unit of p48 SIP kinase was defined as the amount of enzyme that will catalyze the transfer of 1 pmole of phosphate from ATP to MBP in 1 minute.

In data set [2] the test system is MBP. Briefly: Kinase activity assay during purification of p48 SIP kinase (MBP substrate). Format: biochemical. As for the experimental part:
All purification procedures were carried out in a cold room or in a 4° C. chamber. Protein extract from about 200 grams of SA-treated cells was first fractionated by (NH4)2 SO4 precipitation. Saturated ammonium sulfate solution was slowly added to total protein extract to 30% of final concentration. After slowly stirring for 30 minutes, the precipitate was collected by centrifugation at 23,000×gfor 10 minutes. The pellets were then dissolved in a total of 30 mL of buffer A (25 mM Tris, pH 7.5, 1 mM EGTA, 10 mM β-glycerolphosphate, 0.1 mM Na3 VO4, 1 mM DTT, 5% glycerol) plus 1 mM phenylmethylsulfonyl fluoride, 5 μg/mL each of antipain, aprotinin, and leupeptin. […]
Unless specifically indicated, assays were performed at room temperature for 20 minutes in a final volume of 15 μl containing 0.5 mg/mL of MBP, 50 μM of γ-^32 P-ATP (about 3000-6000 cpm/pmole), 25 mM Tris pH 7.5, 5 mM MgCl2, 1 mM EGTA, 1 mM DTT, and enzyme. […] After washing with 150 mM H3 PO4 extensively, the phospho-protein was eluted with 0.4 mL of 1 N NaOH, and the radioactivity was determined by liquid scintillation counting. Total cpm in the reaction mixture was also determined in order to calculate the specific activity of the enzyme preparation. […]

T1 sequence (A0A1S3Z5Y0 whole entry): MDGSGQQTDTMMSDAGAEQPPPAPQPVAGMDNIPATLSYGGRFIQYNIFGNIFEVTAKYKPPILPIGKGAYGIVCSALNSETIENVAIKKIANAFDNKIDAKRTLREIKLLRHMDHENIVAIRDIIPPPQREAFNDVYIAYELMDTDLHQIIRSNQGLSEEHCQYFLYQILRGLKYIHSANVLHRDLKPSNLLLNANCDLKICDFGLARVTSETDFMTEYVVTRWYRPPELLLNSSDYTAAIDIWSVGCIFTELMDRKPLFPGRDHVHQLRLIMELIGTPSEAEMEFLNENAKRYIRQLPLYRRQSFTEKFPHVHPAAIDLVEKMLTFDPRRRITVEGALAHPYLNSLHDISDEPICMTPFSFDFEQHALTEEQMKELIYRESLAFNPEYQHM

B1: p48 SIP kinase: novel protein kinase isolated from tobacco, activated by salicylic acid; Sequence I.D. No. 2 (protein)
chain: MDGSGQQTDTMMSDAGAEQPPTAPQPVAGMDNIPATLSHGGRFIQYNIFGNIFEVTAKYKPPILPIGKGAYGIVCSALNSETIENVAIKKIANAFDNKIDAKRTLREIKLLRHMDHENIVAIRDIIPPPQREAFNDVYIAYELMDTDLHQIIRSNQGLSEEHCQYFLYQILRGLKYIHSANVLHRDLKPSNLLLNANCDLKICDFGLARVTSETDFMTEYVVTRWYRPPELLLNSSDYTAAIDVWSVGCIFMELMDRKPLFPGRDHVHQLRLIMELIGTPSEAEMEFLNENAKRYIRQLPLYRRQSFTEKFPHVHPTAIDLVEKMLTFDPRRRITVEGALAHPYLNSLHDISDEPICMTPFSFDFEQHALTEEQMKELIYRESLAFNPEYQHM
modifications: phosphorylated on tyrosine residue(s); serine/threonine phosphorylation also required for activity; positions not given
Turning to B1, in the data set on MBP [1], the “phosphorylation of MBP / basal phosphorylation activity” value is reported as “phosphorylates MBP”. Moreover, in the data set with p48 SIP kinase, the retained kinase activity result is reported as “more than 50%”. Besides, the “specific activity” value in the data set on MBP [2] (Superdex 200 HR 10/30 fraction) is 339600.0 pmol/min/mg; in the data set on MBP [2] (final purified enzyme), 340000 pmol/min/mg.

Values taken from patent US5977442A, “Salicylic acid induced map kinase and its use for enhanced disease resistance in plants” (priority 1997, dated 1999).
